In patent US20240269278A1 (NANJING SHUNXIN PHARMACEUTICALS CO LTD OF CHIATAI TIANQING …, published 2024):

Experiments:
[1] = molecular target: T1, human CD47 protein, His Tag (ACRObiosystems, Cat. No. CD7-H5227) (human, UniProt Q08722 19-139); test: Biacore SPR, antibody captured on CM5 chip, CD47-His protein, 25 C
T1 construct: Bought protein; also called hCD47-His Tag protein; not shown: His tag
Experimental: (§1) The equilibrium dissociation constants KD (in unit M) were obtained by measuring the binding kinetics of the human CD47 protein (human CD47 protein, His Tag; ACRObiosystems, Cat. No. CD7-H5227) and cynomolgus monkey CD47 protein (cynomolgus/rhesus macaque CD47 protein, His Tag; ACRObiosystems, Cat. No. CD7-C52H1) to anti-CD47 antibodies (chimeric or humanized) using Biacore. The Biacore analysis was performed at 25° C. and data were recorded at a rate of 1 Hz.
(§2) At the beginning of each cycle, the diluted test antibody (1.5 μg/mL) was injected onto the experimental flowcell and maintained for 1 min to be captured.

[2] = molecular target: T2, cynomolgus/rhesus macaque CD47 protein, His Tag (ACRObiosystems, Cat. No. CD7-C52H1) (cynomolgus monkey, UniProt A0A2K5X523 19-139); test: as above
T2 construct: Bought protein; also called Cynomolgus monkey CD47 protein; not shown: His tag
Experimental: as §1, §2

T1 sequence (Q08722 19-139 limits assumed): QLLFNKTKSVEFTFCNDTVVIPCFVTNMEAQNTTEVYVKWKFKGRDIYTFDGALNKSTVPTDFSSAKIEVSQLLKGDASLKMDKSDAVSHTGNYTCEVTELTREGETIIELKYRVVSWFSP

Binder | Kd [1] [nM] | Kd [2] [nM]
hz3F10-3.1 (antibody, human IgG4 S228P, kappa, V domains shown, Humanized 3F10, full-length heavy and light chains, made in CHO cells) VH: QVQLVQSGAEVKKPGSSVKVSCKASGYTFSRYWIEWVRQAPGQGLEWMGEFIPGSDTTNYAQKFQGRVTITADISTSTAYMELSSLRSEDTAVYYCARGGLRRMDYWGQGTLVTVSS VL: DIQMTQSPSSLSASVGDRVTITCRASSSVSSTYLHWYQQKPGKAPKLLIYTTSTLASGVPSRFSGSGSGTSYTLTISSLQPEDFATYYCQQFSDSTWTFGQGTKLEIKR | 1.53 | 
hz3F10-4.2 (antibody, human IgG4 S228P, kappa, V domains shown, Humanized 3F10, full-length heavy and light chains, made in CHO cells) VH: QVQLVQSGAEVKKPGSSVKVSCKASGYTFSRYWIEWVRQAPGQGLEWMGEFIPGSDTTNYAQKFQGRVTITAEISTNTAYMELSSLRSEDTAVYYCARGGLRRMDYWGQGTLVTVSS VL: DIQMTQSPSSLSASVGDRVTITCRASSSVSSTYLHWYQQKPGKAPKLLIYTTSTLASGVPSRFSGSGSGTSYTLTISSLQPEDFATYYCQQFSESTWTFGQGTKLEIKR | 1.34 | 1.86
hz3F10-4.1 (antibody, human IgG4 S228P, kappa, V domains shown, Humanized 3F10, full-length heavy and light chains, made in CHO cells) VH: QVQLVQSGAEVKKPGSSVKVSCKASGYTFSRYWIEWVRQAPGQGLEWMGEFIPGSDTTNYAQKFQGRVTITADISTSTAYMELSSLRSEDTAVYYCARGGLRRMDYWGQGTLVTVSS VL: DIQMTQSPSSLSASVGDRVTITCRASSSVSSTYLHWYQQKPGKAPKLLIYTTSTLASGVPSRFSGSGSGTSYTLTISSLQPEDFATYYCQQFSESTWTFGQGTKLEIKR | 1.42 | 1.62
Xi14A9 (antibody, human IgG4 S228P, kappa, V domains shown, Chimeric: mouse VH on human IgG4 (S228P, EU) constant region, mouse VL on human kappa constant region; made in CHO cells; also called chimeric version of 14A9) VH: EVQLQQSGAEVARPGASVKLSCTVSGFNIEDDYIEWVKQRPEQGLEWIGRIDPANDKTKYAPKFQDKATITGDTSSNTAYLQLSSLTSEDTAVYYCTRPGLRRYYSMDYWGQGTSVTVSS VL: NIVLTQSPKSMSMSVGERVTLSCKASENVVSYVSWYQQKPEQSPKLLIYGASNRYTGVPDRFIGSGSSTDFTLIISSFQPEDLADYHCGQSYSYPLTFGAGTKLELKR | 2.35 | 1.58
hz16E5-1.2 (antibody, human IgG4 S228P, kappa, Humanized 16E5, full-length heavy and light chains, made in CHO cells) heavy: not shown light: DIQMTQSPSSLSASVGDRVTITCRSSQSLVHSNGYTYLHWYQQKPGKAPKLLIYKVSNRFSGVPSRFSGSGSGTDFTLTISSLQPEDFATYYCSQSTHVPPTFGQGTKLEIKRTVAAPSVFIFPPSDEQLKSGTASVVCLLNNFYPREAKVQWKVDNALQSGNSQESVTEQDSKDSTYSLSSTLTLSKADYEKHKVYACEVTHQGLSSPVTKSFNRGEC | 9.31 | 2.26
hz16E5-1.1 (antibody, human IgG4 S228P, kappa, Humanized 16E5, full-length heavy and light chains, made in CHO cells) heavy: not shown light: DIQMTQSPSSLSASVGDRVTITCRSSQSLVHSNGYTYLHWYQQKPGKAPKLLIYKVSNRFSGVPSRFSGSGSGTDFTLTISSLQPEDFATYYCSQSTHVPPTFGQGTKLEIKRTVAAPSVFIFPPSDEQLKSGTASVVCLLNNFYPREAKVQWKVDNALQSGNSQESVTEQDSKDSTYSLSSTLTLSKADYEKHKVYACEVTHQGLSSPVTKSFNRGEC | 18.9 | 4.77
hz16E5-3.2 (antibody, human IgG4 S228P, kappa, Humanized 16E5, full-length heavy and light chains, made in CHO cells) heavy: not shown light: DAQMTQSPSSLSASVGDRVTITCRSSQSLVHSNGYTYLHWYQQKPGKAPKLLIYKVSNRFSGVPSRFSGSGSGTDFTLTISSLQPEDFATYYCSQSTHVPPTFGQGTKLEIKRTVAAPSVFIFPPSDEQLKSGTASVVCLLNNFYPREAKVQWKVDNALQSGNSQESVTEQDSKDSTYSLSSTLTLSKADYEKHKVYACEVTHQGLSSPVTKSFNRGEC | 17.1 | 3.1
hz16E5-1.3 (antibody, human IgG4 S228P, kappa, Humanized 16E5, full-length heavy and light chains, made in CHO cells) heavy: not shown light: DIQMTQSPSSLSASVGDRVTITCRSSQSLVHSNGYTYLHWYQQKPGKAPKLLIYKVSNRFSGVPSRFSGSGSGTDFTLTISSLQPEDFATYYCSQSTHVPPTFGQGTKLEIKRTVAAPSVFIFPPSDEQLKSGTASVVCLLNNFYPREAKVQWKVDNALQSGNSQESVTEQDSKDSTYSLSSTLTLSKADYEKHKVYACEVTHQGLSSPVTKSFNRGEC | 15.3 | 2.73
hz16E5-3.1 (antibody, human IgG4 S228P, kappa, Humanized 16E5, full-length heavy and light chains, made in CHO cells) heavy: not shown light: DAQMTQSPSSLSASVGDRVTITCRSSQSLVHSNGYTYLHWYQQKPGKAPKLLIYKVSNRFSGVPSRFSGSGSGTDFTLTISSLQPEDFATYYCSQSTHVPPTFGQGTKLEIKRTVAAPSVFIFPPSDEQLKSGTASVVCLLNNFYPREAKVQWKVDNALQSGNSQESVTEQDSKDSTYSLSSTLTLSKADYEKHKVYACEVTHQGLSSPVTKSFNRGEC | 6.28 | 3.28
Xi2B2 (antibody, human IgG4 S228P, kappa, V domains shown, Chimeric: mouse VH on human IgG4 (S228P, EU) constant region, mouse VL on human kappa constant region; made in CHO cells; also called chimeric version of 2B2) VH: EVMLVESGGGLVQPGGSLKLSCAASGFTFSNYYMSWVRQTPEKRLEWVAYISSGGGSTYYPDSVKGRFTISRDNAKNTLYLQMSSLKSEDTAMYYCAWFAYWGQGTLVTVSA VL: not shown | 7.48 | 1.2

Now those with a lower Kd [1], led by results:

Kd [1] [nM] | Kd [2] [nM] | Binder
1.15 | 1.47 | hz3F10-3.2 (antibody, human IgG4 S228P, kappa, V domains shown, Humanized 3F10, full-length heavy and light chains, made in CHO cells) VH: QVQLVQSGAEVKKPGSSVKVSCKASGYTFSRYWIEWVRQAPGQGLEWMGEFIPGSDTTNYAQKFQGRVTITAEISTNTAYMELSSLRSEDTAVYYCARGGLRRMDYWGQGTLVTVSS VL: DIQMTQSPSSLSASVGDRVTITCRASSSVSSTYLHWYQQKPGKAPKLLIYTTSTLASGVPSRFSGSGSGTSYTLTISSLQPEDFATYYCQQFSDSTWTFGQGTKLEIKR
0.96 | 1.3 | hz3F10-5.1 (antibody, human IgG4 S228P, kappa, V domains shown, Humanized 3F10, full-length heavy and light chains, made in CHO cells) VH: QVQLVQSGAEVKKPGSSVKVSCKASGYTFSRYWIEWVRQAPGQGLEWMGEFIPGSDTTNYAQKFQGRVTITADISTSTAYMELSSLRSEDTAVYYCARGGLRRMDYWGQGTLVTVSS VL: DIQMTQSPSSLSASVGDRVTITCRASSSVSSTYLHWYQQKPGKAPKLWIYTTSTLASGVPSRFSGSGSGTSYTLTISSLQPEDFATYYCQQFSDSTWTFGQGTKLEIKR
0.946 | 1.31 | hz3F10-1.1 (antibody, human IgG4 S228P, kappa, V domains shown, Humanized 3F10, full-length heavy and light chains, made in CHO cells) VH: QVQLVQSGAEVKKPGSSVKVSCKASGYTFSRYWIEWVRQAPGQGLEWMGEFIPGSDTTNYAQKFQGRVTITADISTSTAYMELSSLRSEDTAVYYCARGGLRRMDYWGQGTLVTVSS VL: DIQMTQSPSSLSASVGDRVTITCRASSSVSSTYLHWYQQKPGKAPKLLIYTTSTLASGVPSRFSGSGSGTDFTLTISSLQPEDFATYYCQQFSDSTWTFGQGTKLEIKR
0.904 | 1.33 | hz3F10-1.2 (antibody, human IgG4 S228P, kappa, V domains shown, Humanized 3F10, full-length heavy and light chains, made in CHO cells) VH: QVQLVQSGAEVKKPGSSVKVSCKASGYTFSRYWIEWVRQAPGQGLEWMGEFIPGSDTTNYAQKFQGRVTITAEISTNTAYMELSSLRSEDTAVYYCARGGLRRMDYWGQGTLVTVSS VL: DIQMTQSPSSLSASVGDRVTITCRASSSVSSTYLHWYQQKPGKAPKLLIYTTSTLASGVPSRFSGSGSGTDFTLTISSLQPEDFATYYCQQFSDSTWTFGQGTKLEIKR
0.896 | 1.4 | hz3F10-5.2 (antibody, human IgG4 S228P, kappa, V domains shown, Humanized 3F10, full-length heavy and light chains, made in CHO cells) VH: QVQLVQSGAEVKKPGSSVKVSCKASGYTFSRYWIEWVRQAPGQGLEWMGEFIPGSDTTNYAQKFQGRVTITAEISTNTAYMELSSLRSEDTAVYYCARGGLRRMDYWGQGTLVTVSS VL: DIQMTQSPSSLSASVGDRVTITCRASSSVSSTYLHWYQQKPGKAPKLWIYTTSTLASGVPSRFSGSGSGTSYTLTISSLQPEDFATYYCQQFSDSTWTFGQGTKLEIKR
0.836 | 1.17 | hz3F10-2.1 (antibody, human IgG4 S228P, kappa, V domains shown, Humanized 3F10, full-length heavy and light chains, made in CHO cells) VH: QVQLVQSGAEVKKPGSSVKVSCKASGYTFSRYWIEWVRQAPGQGLEWMGEFIPGSDTTNYAQKFQGRVTITADISTSTAYMELSSLRSEDTAVYYCARGGLRRMDYWGQGTLVTVSS VL: DIQMTQSPSSLSASVGDRVTITCRASSSVSSTYLHWYQQKPGKAPKLLIYTTSTLASGVPSRFSGSGSGTDFTLTISSLQPEDFATYYCQQFSESTWTFGQGTKLEIKR
0.779 | 1.14 | hz3F10-2.2 (antibody, human IgG4 S228P, kappa, V domains shown, Humanized 3F10, full-length heavy and light chains, made in CHO cells) VH: QVQLVQSGAEVKKPGSSVKVSCKASGYTFSRYWIEWVRQAPGQGLEWMGEFIPGSDTTNYAQKFQGRVTITAEISTNTAYMELSSLRSEDTAVYYCARGGLRRMDYWGQGTLVTVSS VL: DIQMTQSPSSLSASVGDRVTITCRASSSVSSTYLHWYQQKPGKAPKLLIYTTSTLASGVPSRFSGSGSGTDFTLTISSLQPEDFATYYCQQFSESTWTFGQGTKLEIKR
0.765 | 1.15 | hz3F10-6.2 (antibody, human IgG4 S228P, kappa, V domains shown, Humanized 3F10, full-length heavy and light chains, made in CHO cells) VH: QVQLVQSGAEVKKPGSSVKVSCKASGYTFSRYWIEWVRQAPGQGLEWMGEFIPGSDTTNYAQKFQGRVTITAEISTNTAYMELSSLRSEDTAVYYCARGGLRRMDYWGQGTLVTVSS VL: DIQMTQSPSSLSASVGDRVTITCRASSSVSSTYLHWYQQKPGKAPKLWIYTTSTLASGVPSRFSGSGSGTSYTLTISSLQPEDFATYYCQQFSESTWTFGQGTKLEIKR
0.592 | 2.47 | hz3F10-6.1 (antibody, human IgG4 S228P, kappa, V domains shown, Humanized 3F10, full-length heavy and light chains, made in CHO cells) VH: QVQLVQSGAEVKKPGSSVKVSCKASGYTFSRYWIEWVRQAPGQGLEWMGEFIPGSDTTNYAQKFQGRVTITADISTSTAYMELSSLRSEDTAVYYCARGGLRRMDYWGQGTLVTVSS VL: DIQMTQSPSSLSASVGDRVTITCRASSSVSSTYLHWYQQKPGKAPKLWIYTTSTLASGVPSRFSGSGSGTSYTLTISSLQPEDFATYYCQQFSESTWTFGQGTKLEIKR
0.35 | 1.25 | Xi2H8 (antibody, human IgG4 S228P, kappa, V domains shown, Chimeric: mouse VH on human IgG4 (S228P, EU) constant region, mouse VL on human kappa constant region; made in CHO cells; also called chimeric version of 2H8) VH: QVQLKESGPGLVAPSQSLSITCTVSGFSLTNYGVHWVRQPPGKGLEWLGIIWAGGSTNYNSALMSRLSISKDNSKSQVFLKMNSLQTDDTAMYYCARDDYASMDYWGQGTSVTVSS VL: DAFMTQTPLSLPVSLGDQASISCRSSQSLVHSNGNTYLHWYLQKPGQSPKLLIYKVSNRFSGVPDRFSGSGSGTDFTLKISRVEAEDLGVYFCSQSTHVPYTLGGGTKLEIKR
